From publication PMC6230994 (2018)

Molecular target: His6:ΔIBB-IMPORTIN-α2 (Arabidopsis thaliana (Mouse-ear cress), UniProt F4JL11)
Assay: analytical SEC

His6:ΔIBB-IMPORTIN-α2, sequence (F4JL11 75-535, stated change not applied): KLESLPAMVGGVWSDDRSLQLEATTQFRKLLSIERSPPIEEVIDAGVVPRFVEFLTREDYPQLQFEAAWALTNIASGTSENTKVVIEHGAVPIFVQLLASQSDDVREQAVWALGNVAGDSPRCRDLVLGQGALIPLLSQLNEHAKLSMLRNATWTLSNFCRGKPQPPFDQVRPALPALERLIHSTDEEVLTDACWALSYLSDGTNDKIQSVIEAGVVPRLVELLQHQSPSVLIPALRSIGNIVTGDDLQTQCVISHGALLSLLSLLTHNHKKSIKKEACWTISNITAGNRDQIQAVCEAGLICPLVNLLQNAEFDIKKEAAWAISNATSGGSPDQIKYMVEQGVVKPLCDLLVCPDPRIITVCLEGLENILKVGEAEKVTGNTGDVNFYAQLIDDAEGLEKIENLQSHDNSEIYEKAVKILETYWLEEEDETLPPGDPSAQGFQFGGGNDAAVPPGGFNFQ

B1: His6:SUMO:SAP (protein)
chain: MANKLKVDELRLKLAERGLSTTGVKAVLVERLEEAIAEDTKKEESKSKRKRNSSNDTYESNKLIAIGEFRGMIVKELREEAIKRGLDTTGTKKDLLERLCNDANN
  binding result: no binding
